Test results: paper PMC12623338

Each sequence was assayed on T1, CrsR (response regulator of CrsRK) (Actinosynnema pretiosum X47), ORF:a04a2703 (assay: EMSA). Details: EMSA: 50-100 fmol probe, 0.5-1 ug CrsR, binding buffer with poly(dI-dC) (salt and pH not stated), 20 min at room temperature, 8% native PAGE; protein dialyzed ….
T1 sequence: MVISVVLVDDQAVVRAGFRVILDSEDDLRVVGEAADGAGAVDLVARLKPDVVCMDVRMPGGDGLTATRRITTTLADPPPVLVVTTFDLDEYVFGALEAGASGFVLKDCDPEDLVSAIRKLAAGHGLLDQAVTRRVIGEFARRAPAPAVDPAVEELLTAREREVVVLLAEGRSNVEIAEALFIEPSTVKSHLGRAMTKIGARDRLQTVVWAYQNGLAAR

Sequence	binding
GGTCGGGCACCAGGAACACCTCGCAGAGCGCAAAGACGTGAGTGGACGGTGCGATTGTGCTGACGGCCTGACCCCGGTGGTGGGGACCGCGGCGAACCGGCTGAACGCAGGGGGGACCTAGGGGGGCGTCAGGGGGTTGGGGGGCTCTTCCGGCCGCCGTTAGCTTCGGGCCGCGCACCGGCCCCCGGAGAGCGCGCCGGACCGAGAGCAGAGACGAGGGCGACCGACCGTGCACCTGAAGGCCCCGCAGAAGCT (double strand) [asm24 promoter probe]	no binding
TGACGGCGTCGGGTGAGGCCGCCGCTGGCCCTGGGACGGCGCTGCGCGCCCCCTCGGACCCACCGGAGCCGCCACCACCGCTTGTCCCCTTCCACCGGGTGGGGCGCGGTCGGTAATCCGGCGGCAATTCCTTCCCCCGTCCGGGCTAGCCAGGCCCGTGCGCCCGCGTCGCGCACGGGCCAAGGTGGGTGGCTGCGCGGATGACCGGGCCCCCGAACCGGATGTGGGAGAGATGCTGCGAAGCGAC (double strand) [asmA promoter probe]	no binding
ACTCGGTCGCCGTGGTCATGGCTACAGCCAACAACCTCGACCATGGTGGAGGTCAACAGTAAGGTTGAGCTGGTGAGCAAGTTGCCGGAGATGTTGACCATCGGCCAGGTCGCCGAGCGCAGCGGGGTGCCCCACACGGCGCTGCGGTTCTACGAGGAGCGCGGGCTGATCGCCTCGGAGCGCACGGCGGGCAACCAGCGCCGCTACCCCAGGCACGTGCTGCGCAGGCTCGCGTTCATCCGCACCGCGCAGCGGGTCGGGCTGAGCCTGGAGGAGGTGCG (double strand) [asm13 promoter probe (asm13-15, asm10-12)]	no binding
CGGACAGACCGATCCCCGAGTCGTGCGGGCCCGAGCCGTGGACGCGCGGGCCGTGGACGCGCGAGCCGCGACCGCCGCCCCCACGACCGCCGCCCCCACGACCGCCGCTCCGGCGACCACTGCTCCGGCGACCGCCGCTCCGGCGACCGCCGCTCCGGCGACCGCCGCTCCGGCGACCGCCGCCCCCACGACCACTCCTCCGCGCCCCCGCGTCCCCCAGGCCCCCGCGCCCCACCGGCACGTTCCGGGCGCGACCTACGACCGGGCCGTGCTGTTCGACCTCGACGGG (double strand) [asm45 promoter probe (asm45-47)]	binds
CGGTCCACCAGCCGCATCCCTCGCCTCCCCCGCGTCCGCCCCGCCGACCTTCAGGCATGTCAACAGCCCTGTCAGTCGTCTTGTCCACGCCCCGACCACCGCACCCCCACTGGCCGCCCACCCGCGCCGGGAAAACCACGAAGTCCCCTGCCGCGCGGGCGTCCCAGGTCGGACACTCCTGAGCGCACCCCCGCACCCGTTCCAGGAGGC (double strand) [asm7 promoter probe]	no binding
GGAGGGACGAGCGGAGACCGGGTCGCGGGACTCCACTTCGGACGGTAGGGCACGCGGGCGCCGTTGGCAGTTGCCGCTTCCACGGCTGGCGAACAAAGCGGTAATCCCTTGCGCCACAGGCGATTGACACCCCGGCGAGGCCCTGGTTTCACTGCTGTCCGCACGTCACCGGCGCGAGGAGGCCCCCGTGAAGTACATGCTGCTCATCCAC (double strand) [asm21 promoter probe]	binds
CCGGTTCCCGTTCATCCAATTGTGCGCACGACCGCGCCGCCGTGCCCGCGTGCTGCGGTGATGGCCTGGGAACAGGGGGGATTAGGGGGAGGTCAAGGGGGTTGGTCGGGATCTGCGGAATCGGTAGCGTCGAATTCCGAAAGCCGGCCGCGGTGAATTCCCCCGCGCCATTTCCGCGAACGACGGGACAGGGGCTCATGGGCA (double strand) [asm43 promoter probe (asm43-44)]	binds
